In assay [1] the target is CD3ε of the TCR-CD3 complex expressed on Jurkat cells (T-cell Surface Glycoprotein CD3 Epsilon) (human) (UniProt P07766). Nature of the assay: flow cytometry on Jurkat.E6 cells at 25 C, secondary goat anti-mouse IgG staining, one-site specific binding fit. Background: In flow cytometry, cells or beads pass a laser one at a time.
Assay [2] deals with CD28 expressed on Jurkat.E6 cells (human) (UniProt P10747). Described as above.

The term pKd denotes −log10 of the Kd, conventionally taken in molar units. A higher pKd goes with a low Kd.

pKd: −log10 of the molar value.

Turning to “anti-CD3 monoclonal antibody clone OKT3 (mouse anti-human, isotype IgG2a, BioXCell Catalog# BE0001-2)”, the negative logarithm of the Kd (pKd) in assay [1] was 8.82. Same read-out and setting: in the case of “anti-CD3 monoclonal antibody clone UCHT1 (mouse anti-human, isotype IgG1, BioXCell Catalog# BE0231)” it was 8.85. The substance “anti-CD28 monoclonal antibody (mouse anti-human, isotype IgG2a, Clone 9.3, BioXCell Catalog# BE0248)” gave a negative logarithm of the Kd (pKd) in assay [2] of 8.80.

The values above are taken from US20190177716A1.
